Two molecules from PMC8327961, “Nse5/6 inhibits the Smc5/6 ATPase and modulates DNA substrate binding” (The EMBO Journal, 2021) can be followed below.

In one data set the target is T1, Smc5/6 core hexamer (Saccharomyces cerevisiae, UniProt Q08204+Q12749).
T1 construct: full-length Smc5, Smc6, Nse1, Nse2, Nse3, Nse4 co-expressed in E. coli Rosetta (DE3); C-terminal 3C-Twin-Strep-tag on Smc6; with Non-structural maintenance of chromosomes element 1; E3 SUMO-protein ligase MMS21; Non-structural maintenance of chromosome element 3; Non-structural maintenance of chromosome element 4
Briefly: pyruvate kinase/lactate dehydrogenase coupled ATPase assay. As to conditions: Walker B mutation in both Smc5 and Smc6, residue numbers not told; ATPase buffer pH 7.5, 2 mM MgCl2; 25 °C. Type of data set: biochemical.

The target in data set [1] is Smc5/6 octamer (hexamer plus Nse5/6) (Saccharomyces cerevisiae, UniProt Q08204;Q12749;Q07913;P38632;Q05541;P43124;Q03718;P40026 …). Briefly: fluorescence anisotropy; ATPase buffer: 10 mM Hepes-KOH pH 7.5, 150 mM K-OAc, 2 mM MgCl2, 20% glycerol; anisotropy at 25 C; plasmid pulldown bound at room temperature, high-salt buffer. The following applies: protein: recombinant; tags: C-terminal 3C-Twin-Strep on Smc6; reconstitution with Nse5 C-terminal AviTag-3C-Twin-Strep; copies: 1;1;1;1;1;1;1;1; blunt. A general note: In fluorescence polarisation assays a small probe gives low polarisation when free and higher when bound to something large.

Data set [2] deals with Smc5/6 hexamer (Smc5, Smc6, Nse1, Nse2, Nse3, Nse4) (Saccharomyces cerevisiae, UniProt Q08204;Q12749;Q07913;P38632;Q05541;P43124 1-1093;1-1114;1-336;1-267;1-303;1-402). The description is as above. The following applies: protein: recombinant; tags: C-terminal 3C-Twin-Strep on Smc6; copies: 1;1;1;1;1;1; blunt.
The target of another data set is T2, Nse5/6 dimer (Saccharomyces cerevisiae, UniProt Q03718;P40026 1-556;1-464).
T2 sequence 1: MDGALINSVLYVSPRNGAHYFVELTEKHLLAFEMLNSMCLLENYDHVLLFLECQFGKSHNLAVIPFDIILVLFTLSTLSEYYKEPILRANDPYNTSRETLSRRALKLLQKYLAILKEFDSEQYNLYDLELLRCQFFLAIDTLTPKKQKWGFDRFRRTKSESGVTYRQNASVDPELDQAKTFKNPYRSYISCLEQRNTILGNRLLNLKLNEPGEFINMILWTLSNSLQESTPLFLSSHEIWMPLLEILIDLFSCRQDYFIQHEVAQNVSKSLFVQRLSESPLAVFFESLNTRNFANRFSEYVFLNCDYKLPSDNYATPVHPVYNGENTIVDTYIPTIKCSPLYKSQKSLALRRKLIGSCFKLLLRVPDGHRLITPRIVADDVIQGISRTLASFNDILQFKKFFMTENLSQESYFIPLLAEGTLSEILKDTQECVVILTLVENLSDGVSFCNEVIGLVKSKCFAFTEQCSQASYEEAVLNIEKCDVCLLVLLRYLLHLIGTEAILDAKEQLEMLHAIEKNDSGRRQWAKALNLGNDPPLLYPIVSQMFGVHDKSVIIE
T2 sequence 2: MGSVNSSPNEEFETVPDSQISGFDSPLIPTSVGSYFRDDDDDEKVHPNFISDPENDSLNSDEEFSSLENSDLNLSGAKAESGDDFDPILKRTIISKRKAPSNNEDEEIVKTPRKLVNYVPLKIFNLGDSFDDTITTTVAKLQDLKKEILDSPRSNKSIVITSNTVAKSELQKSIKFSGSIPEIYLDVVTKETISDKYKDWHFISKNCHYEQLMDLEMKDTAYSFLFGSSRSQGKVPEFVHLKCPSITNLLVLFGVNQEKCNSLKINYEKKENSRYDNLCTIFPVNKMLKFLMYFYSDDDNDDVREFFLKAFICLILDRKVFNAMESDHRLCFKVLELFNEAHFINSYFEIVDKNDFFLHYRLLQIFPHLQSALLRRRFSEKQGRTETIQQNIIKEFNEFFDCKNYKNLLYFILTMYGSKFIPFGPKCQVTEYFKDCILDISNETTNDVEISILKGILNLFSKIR
The description is as above. The following applies: protein: recombinant; copies: 1;1; blunt.

T1 sequence (Q08204 whole entry): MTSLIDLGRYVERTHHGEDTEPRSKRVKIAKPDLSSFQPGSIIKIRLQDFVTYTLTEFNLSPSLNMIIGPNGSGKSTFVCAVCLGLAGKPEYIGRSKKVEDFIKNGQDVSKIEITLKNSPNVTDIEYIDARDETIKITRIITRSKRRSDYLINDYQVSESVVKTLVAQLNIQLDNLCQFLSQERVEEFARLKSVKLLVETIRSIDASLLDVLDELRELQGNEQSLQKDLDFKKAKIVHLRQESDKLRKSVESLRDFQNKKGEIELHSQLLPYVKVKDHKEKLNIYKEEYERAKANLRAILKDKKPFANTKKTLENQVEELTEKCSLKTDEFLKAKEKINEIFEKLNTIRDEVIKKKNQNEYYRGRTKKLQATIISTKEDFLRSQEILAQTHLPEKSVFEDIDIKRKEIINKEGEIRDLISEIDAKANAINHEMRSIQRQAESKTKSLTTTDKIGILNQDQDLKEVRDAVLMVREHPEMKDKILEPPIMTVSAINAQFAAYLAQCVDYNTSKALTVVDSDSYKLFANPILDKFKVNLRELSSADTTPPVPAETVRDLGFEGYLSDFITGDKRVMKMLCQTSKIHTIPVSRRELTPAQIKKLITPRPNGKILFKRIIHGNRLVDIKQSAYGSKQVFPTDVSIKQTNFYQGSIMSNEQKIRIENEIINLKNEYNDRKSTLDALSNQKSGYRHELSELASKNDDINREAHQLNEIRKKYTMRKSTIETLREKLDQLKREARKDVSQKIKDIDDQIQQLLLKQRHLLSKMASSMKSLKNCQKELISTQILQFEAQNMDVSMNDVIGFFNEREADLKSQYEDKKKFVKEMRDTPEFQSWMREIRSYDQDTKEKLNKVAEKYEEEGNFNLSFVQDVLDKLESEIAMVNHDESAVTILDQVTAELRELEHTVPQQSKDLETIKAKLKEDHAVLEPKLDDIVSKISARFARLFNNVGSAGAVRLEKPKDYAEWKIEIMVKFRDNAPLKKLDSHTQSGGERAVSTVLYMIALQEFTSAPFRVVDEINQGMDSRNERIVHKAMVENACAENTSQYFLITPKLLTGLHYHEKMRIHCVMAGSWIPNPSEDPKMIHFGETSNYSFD
T1 sequence (Q12749 whole entry): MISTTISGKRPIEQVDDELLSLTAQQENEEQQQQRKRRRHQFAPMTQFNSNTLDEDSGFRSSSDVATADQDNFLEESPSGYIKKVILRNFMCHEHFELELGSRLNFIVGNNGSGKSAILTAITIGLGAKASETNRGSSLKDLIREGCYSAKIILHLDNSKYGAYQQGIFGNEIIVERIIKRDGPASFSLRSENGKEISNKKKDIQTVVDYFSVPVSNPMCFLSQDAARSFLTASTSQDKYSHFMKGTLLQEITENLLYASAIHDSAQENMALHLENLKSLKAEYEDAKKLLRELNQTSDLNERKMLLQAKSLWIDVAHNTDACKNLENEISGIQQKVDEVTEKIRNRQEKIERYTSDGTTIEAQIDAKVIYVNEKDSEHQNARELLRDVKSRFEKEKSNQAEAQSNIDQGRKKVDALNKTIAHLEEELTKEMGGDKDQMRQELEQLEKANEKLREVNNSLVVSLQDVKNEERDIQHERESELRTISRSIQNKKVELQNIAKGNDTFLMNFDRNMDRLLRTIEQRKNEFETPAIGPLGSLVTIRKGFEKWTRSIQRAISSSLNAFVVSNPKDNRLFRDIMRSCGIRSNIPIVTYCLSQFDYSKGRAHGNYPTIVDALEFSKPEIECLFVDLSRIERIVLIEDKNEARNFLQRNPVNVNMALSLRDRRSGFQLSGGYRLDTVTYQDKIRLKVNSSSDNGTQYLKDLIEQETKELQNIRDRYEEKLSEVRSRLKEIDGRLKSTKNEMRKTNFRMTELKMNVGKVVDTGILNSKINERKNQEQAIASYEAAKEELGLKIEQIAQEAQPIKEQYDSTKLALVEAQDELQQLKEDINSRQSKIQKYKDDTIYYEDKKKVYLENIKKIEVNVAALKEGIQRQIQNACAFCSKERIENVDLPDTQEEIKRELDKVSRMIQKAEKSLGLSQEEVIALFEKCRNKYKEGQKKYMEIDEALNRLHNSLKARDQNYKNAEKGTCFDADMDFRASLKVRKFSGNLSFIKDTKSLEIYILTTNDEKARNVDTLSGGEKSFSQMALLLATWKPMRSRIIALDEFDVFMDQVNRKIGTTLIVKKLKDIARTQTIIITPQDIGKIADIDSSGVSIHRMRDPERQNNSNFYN
T1 sequence (Q07913 whole entry partner): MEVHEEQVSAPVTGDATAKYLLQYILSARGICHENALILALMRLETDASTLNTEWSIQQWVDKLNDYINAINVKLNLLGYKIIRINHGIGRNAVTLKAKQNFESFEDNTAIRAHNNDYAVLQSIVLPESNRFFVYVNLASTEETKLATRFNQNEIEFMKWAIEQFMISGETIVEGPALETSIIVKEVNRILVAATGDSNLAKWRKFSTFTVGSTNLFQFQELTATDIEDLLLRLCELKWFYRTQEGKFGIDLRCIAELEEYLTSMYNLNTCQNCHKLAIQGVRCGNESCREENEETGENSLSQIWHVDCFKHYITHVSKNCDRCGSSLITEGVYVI
T1 sequence (P38632 whole entry partner): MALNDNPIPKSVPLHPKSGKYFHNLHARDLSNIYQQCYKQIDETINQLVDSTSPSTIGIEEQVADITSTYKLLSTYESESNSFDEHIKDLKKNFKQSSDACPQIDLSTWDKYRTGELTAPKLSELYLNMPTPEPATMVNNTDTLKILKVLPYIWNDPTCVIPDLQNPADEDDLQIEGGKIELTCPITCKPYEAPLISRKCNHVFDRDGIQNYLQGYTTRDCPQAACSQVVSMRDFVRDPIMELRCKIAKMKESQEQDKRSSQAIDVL
T1 sequence (Q05541 whole entry partner): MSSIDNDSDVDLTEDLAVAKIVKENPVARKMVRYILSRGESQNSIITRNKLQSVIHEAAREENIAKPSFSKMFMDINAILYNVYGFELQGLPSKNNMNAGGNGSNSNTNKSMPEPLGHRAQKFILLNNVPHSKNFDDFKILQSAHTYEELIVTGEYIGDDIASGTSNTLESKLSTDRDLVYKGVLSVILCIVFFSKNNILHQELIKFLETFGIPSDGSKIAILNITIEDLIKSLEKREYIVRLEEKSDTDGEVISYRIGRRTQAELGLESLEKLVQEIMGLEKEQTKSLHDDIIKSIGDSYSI
T1 sequence (P43124 whole entry partner): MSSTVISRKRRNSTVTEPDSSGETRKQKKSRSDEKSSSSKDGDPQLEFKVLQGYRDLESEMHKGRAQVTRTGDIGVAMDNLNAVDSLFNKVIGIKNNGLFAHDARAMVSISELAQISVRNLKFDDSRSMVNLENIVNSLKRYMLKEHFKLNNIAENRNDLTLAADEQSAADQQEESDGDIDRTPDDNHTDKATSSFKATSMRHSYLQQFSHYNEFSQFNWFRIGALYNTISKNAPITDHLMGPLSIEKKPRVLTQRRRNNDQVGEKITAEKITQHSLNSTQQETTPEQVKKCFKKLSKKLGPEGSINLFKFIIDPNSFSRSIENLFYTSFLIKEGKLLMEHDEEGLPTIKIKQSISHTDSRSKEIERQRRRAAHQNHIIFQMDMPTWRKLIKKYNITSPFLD

With `Nc1ncnc2c1ncn2[C@@H]1O[C@H](COP(=O)(O)OP(=O)(O)OP(=O)(O)O)[C@@H](O)[C@H]1O` [ATP], the “no noticeable ATP hydrolysis” value at Smc5/6 core hexamer is given as “did not display noticeable ATP hydrolysis activity”.

B1: 40bpDNA (STI699/STI700) (dsDNA)
DNA 1: TTAGTTGTTCGTAGTGCTCGTCTGGCTCTGGATTACCCGC
DNA 2: GCGGGTAATCCAGAGCCAGACGAGCACTACGAACAACTAA
With B1, the Kd was ~100 nM in data set [1] and ~150 nM in data set [2]. Further, the binding result in the data set with Nse5/6 dimer was “no binding”.

The term Kd denotes the free concentration of one partner at which half of the binding sites on the other are occupied at equilibrium, for simple one-to-one binding.
